The subject of series [1] is T1, NF-IL6/LAP (wild type, C/EBP beta), P21272-2.
T1 sequence: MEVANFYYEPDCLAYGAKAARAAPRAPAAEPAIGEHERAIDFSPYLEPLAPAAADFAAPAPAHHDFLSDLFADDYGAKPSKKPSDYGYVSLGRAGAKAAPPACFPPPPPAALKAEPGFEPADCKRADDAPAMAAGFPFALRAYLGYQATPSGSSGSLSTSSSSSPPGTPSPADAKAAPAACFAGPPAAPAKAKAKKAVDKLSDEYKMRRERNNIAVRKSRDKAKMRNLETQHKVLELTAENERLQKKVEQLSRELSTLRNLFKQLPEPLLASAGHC
The experiment in a line: cell_activity. As to conditions: increase in CAT transactivation with PKC alpha plus TPA, HepG2.

Series [2] has as its system LAP(Asp105)/GAL4 chimera S105D (/ Saccharomyces cerevisiae). In words: cell_activity. As to conditions: luciferase relative to LAP(Ser105)/GAL4.

As to D-CAT reporter (albumin D-site), the activity in series [1] stood at 5 fold.

In turn, 5xGAL4-LUC reporter GAL4 sites gave an activity in series [2] of 3 fold.

(Values after patent US5874209.)
